We go through 91 sequences from the supplement of paper PMC9112550, “Optimization of the antimicrobial peptide Bac7 by deep mutational scanning” (BMC Biology, 2022).
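Note: peptides expressed intracellularly from a pBAD plasmid library in pooled LB shake-flask culture, induced with 0.3% L-arabinose, DNA abundance read by NGS, three biological replicates, DESeq2 with apeglm shrinkage.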

The data set relates to Escherichia coli TOP10. The data set can be described thus: shrunken log2 fold change of peptide-encoding DNA abundance (4.5 h post-induction vs induction); higher = less antimicrobial activity (less host growth inhibition). To be noted: time post-induction: 4.5 h; library: site-saturation at positions 5, 18, 19, 20.
Regarding RRIRWRPPRLPRPRPRPTVAPRP, the “shrunken log2 fold change” value worked out at 0.662.

With RRIRGRPPRLPRPRPRPDTVPRP, the “shrunken log2 fold change” value was -0.116.

For the sequence RRIRYRPPRLPRPRPRPHCEPRP, the “shrunken log2 fold change” value is -0.00822.

Take RRIRHRPPRLPRPRPRPLFIPRP: the “shrunken log2 fold change” value is -0.68.

As to RRIRFRPPRLPRPRPRPPRIPRP, the “shrunken log2 fold change” value is 0.232.

RRIRWRPPRLPRPRPRPHNHPRP: the “shrunken log2 fold change” value is -0.707.

As to RRIRQRPPRLPRPRPRPFGAPRP, the “shrunken log2 fold change” value is -0.0476.

For the sequence RRIRNRPPRLPRPRPRPPLWPRP, the “shrunken log2 fold change” value was determined as 0.539.

As to RRIRERPPRLPRPRPRPSSPPRP, the “shrunken log2 fold change” value was -0.824.

Turning to RRIRSRPPRLPRPRPRPSRGPRP, the “shrunken log2 fold change” value was determined as 0.483.

Consider RRIRHRPPRLPRPRPRPVKIPRP, for which the “shrunken log2 fold change” value was -0.0352.

For the sequence RRIRFRPPRLPRPRPRPLHCPRP, the “shrunken log2 fold change” value was 0.0254.

With RRIRGRPPRLPRPRPRPNQRPRP, the “shrunken log2 fold change” value came to 0.27.

With RRIRKRPPRLPRPRPRPVLRPRP, the “shrunken log2 fold change” value was determined as 0.0359.

Take RRIRNRPPRLPRPRPRPCWPPRP: the “shrunken log2 fold change” value was 0.274.

For RRIRARPPRLPRPRPRPVPKPRP, the “shrunken log2 fold change” value was determined as 0.791.

RRIRLRPPRLPRPRPRPLTDPRP: the “shrunken log2 fold change” value came to 0.133.

RRIRRRPPRLPRPRPRPKFKPRP: the “shrunken log2 fold change” value is -0.046.

As to RRIRARPPRLPRPRPRPDIKPRP, the “shrunken log2 fold change” value is -0.026.

As for RRIRLRPPRLPRPRPRPLWRPRP, the “shrunken log2 fold change” value stood at 0.785.

RRIRTRPPRLPRPRPRPHEIPRP: the “shrunken log2 fold change” value came to 0.00283.

On to RRIRWRPPRLPRPRPRPLMSPRP, for which the “shrunken log2 fold change” value is -0.0663.

Turning to RRIRSRPPRLPRPRPRPCHDPRP, the “shrunken log2 fold change” value was -0.105.

Take RRIRGRPPRLPRPRPRPAPNPRP: the “shrunken log2 fold change” value was 0.829.

Take RRIRWRPPRLPRPRPRPTRCPRP: the “shrunken log2 fold change” value is 0.0338.

Turning to RRIRGRPPRLPRPRPRPMEKPRP, the “shrunken log2 fold change” value is 0.0535.

Turning to RRIRERPPRLPRPRPRPKLVPRP, the “shrunken log2 fold change” value amounted to 0.0398.

For the sequence RRIRMRPPRLPRPRPRPYGSPRP, the “shrunken log2 fold change” value is -0.0489.

With RRIRIRPPRLPRPRPRPHDSPRP, the “shrunken log2 fold change” value is -0.398.

For the sequence RRIRERPPRLPRPRPRPCPKPRP, the “shrunken log2 fold change” value is -0.39.

For RRIRGRPPRLPRPRPRPPFVPRP, the “shrunken log2 fold change” value stood at 0.803.

For RRIRERPPRLPRPRPRPWICPRP, the “shrunken log2 fold change” value was -0.378.

As to RRIRPRPPRLPRPRPRPIRQPRP, the “shrunken log2 fold change” value is -0.0697.

As to RRIRPRPPRLPRPRPRPQPWPRP, the “shrunken log2 fold change” value was 0.348.

Consider RRIRWRPPRLPRPRPRPDGSPRP, for which the “shrunken log2 fold change” value was -0.0311.

RRIRKRPPRLPRPRPRPYLRPRP: the “shrunken log2 fold change” value was -0.0481.

Turning to RRIRYRPPRLPRPRPRPYFQPRP, the “shrunken log2 fold change” value is -1.6.

RRIRMRPPRLPRPRPRPVEPPRP: the “shrunken log2 fold change” value amounted to 0.207.

For the sequence RRIRCRPPRLPRPRPRPHNIPRP, the “shrunken log2 fold change” value is -0.898.

RRIRKRPPRLPRPRPRPDFRPRP: the “shrunken log2 fold change” value stood at 0.134.

As for RRIRIRPPRLPRPRPRPWNRPRP, the “shrunken log2 fold change” value is 0.000744.

Take RRIRSRPPRLPRPRPRPPKSPRP: the “shrunken log2 fold change” value was determined as 0.271.

As for RRIRQRPPRLPRPRPRPTACPRP, the “shrunken log2 fold change” value is 0.0488.

For RRIRQRPPRLPRPRPRPWVYPRP, the “shrunken log2 fold change” value is -0.264.

As for RRIRNRPPRLPRPRPRPSRQPRP, the “shrunken log2 fold change” value was 0.0744.

In the case of RRIRERPPRLPRPRPRPHYRPRP, the “shrunken log2 fold change” value was found to be 0.05.

Turning to RRIRGRPPRLPRPRPRPAATPRP, the “shrunken log2 fold change” value amounted to 3.06.

For the sequence RRIRVRPPRLPRPRPRPTGWPRP, the “shrunken log2 fold change” value worked out at 0.377.

With RRIRWRPPRLPRPRPRPDLEPRP, the “shrunken log2 fold change” value came out at 0.974.

Turning to RRIRQRPPRLPRPRPRPTARPRP, the “shrunken log2 fold change” value is 0.219.

As to RRIRRRPPRLPRPRPRPHQCPRP, the “shrunken log2 fold change” value was -0.0941.

Regarding RRIRTRPPRLPRPRPRPTAYPRP, the “shrunken log2 fold change” value is -0.0821.

For RRIRARPPRLPRPRPRPSYEPRP, the “shrunken log2 fold change” value is -0.069.

Turning to RRIRVRPPRLPRPRPRPVQGPRP, the “shrunken log2 fold change” value is 0.0692.

For RRIRHRPPRLPRPRPRPSVQPRP, the “shrunken log2 fold change” value was -0.266.

On to RRIRMRPPRLPRPRPRPSCKPRP, for which the “shrunken log2 fold change” value was 0.0347.

Take RRIRWRPPRLPRPRPRPVPGPRP: the “shrunken log2 fold change” value turned out to be 0.491.

Consider RRIRVRPPRLPRPRPRPGDKPRP, for which the “shrunken log2 fold change” value stood at 0.00318.

As for RRIRNRPPRLPRPRPRPVNMPRP, the “shrunken log2 fold change” value was found to be 0.131.

Regarding RRIRYRPPRLPRPRPRPQTGPRP, the “shrunken log2 fold change” value was -0.288.

Take RRIRQRPPRLPRPRPRPDREPRP: the “shrunken log2 fold change” value came out at 0.00931.

For RRIRWRPPRLPRPRPRPYRLPRP, the “shrunken log2 fold change” value stood at 0.00724.

With RRIRIRPPRLPRPRPRPYIAPRP, the “shrunken log2 fold change” value was -0.158.

Consider RRIRNRPPRLPRPRPRPGGEPRP, for which the “shrunken log2 fold change” value was -0.0266.

For RRIRCRPPRLPRPRPRPLAWPRP, the “shrunken log2 fold change” value was -0.0538.

Consider RRIRPRPPRLPRPRPRPPECPRP, for which the “shrunken log2 fold change” value stood at 0.338.

On to RRIRFRPPRLPRPRPRPMDDPRP, for which the “shrunken log2 fold change” value was -0.182.

As to RRIRMRPPRLPRPRPRPNGCPRP, the “shrunken log2 fold change” value came to 0.254.

On to RRIRMRPPRLPRPRPRPAEWPRP, for which the “shrunken log2 fold change” value worked out at 0.375.

Take RRIRTRPPRLPRPRPRPLWEPRP: the “shrunken log2 fold change” value is -0.0281.

On to RRIRCRPPRLPRPRPRPDQSPRP, for which the “shrunken log2 fold change” value came out at 0.112.

RRIRYRPPRLPRPRPRPLTHPRP: the “shrunken log2 fold change” value is -0.845.

For RRIRHRPPRLPRPRPRPRSDPRP, the “shrunken log2 fold change” value was -0.123.

Consider RRIRSRPPRLPRPRPRPTAFPRP, for which the “shrunken log2 fold change” value was 0.534.

Turning to RRIRMRPPRLPRPRPRPGMKPRP, the “shrunken log2 fold change” value was found to be 0.282.

Regarding RRIRTRPPRLPRPRPRPNCQPRP, the “shrunken log2 fold change” value was -0.369.

In the case of RRIRERPPRLPRPRPRPGCPPRP, the “shrunken log2 fold change” value is 0.0137.

As to RRIRRRPPRLPRPRPRPYTFPRP, the “shrunken log2 fold change” value is -0.0103.

Take RRIRARPPRLPRPRPRPQKIPRP: the “shrunken log2 fold change” value is -0.108.

Turning to RRIRVRPPRLPRPRPRPRECPRP, the “shrunken log2 fold change” value stood at 0.175.

On to RRIRRRPPRLPRPRPRPENIPRP, for which the “shrunken log2 fold change” value is -0.468.

With RRIRPRPPRLPRPRPRPQHGPRP, the “shrunken log2 fold change” value is -0.189.

In the case of RRIRWRPPRLPRPRPRPTVEPRP, the “shrunken log2 fold change” value turned out to be 0.0565.

For RRIRDRPPRLPRPRPRPWLVPRP, the “shrunken log2 fold change” value was -0.117.

Regarding RRIRIRPPRLPRPRPRPWPTPRP, the “shrunken log2 fold change” value is 0.331.

For the sequence RRIRCRPPRLPRPRPRPYQAPRP, the “shrunken log2 fold change” value is -1.11.

Take RRIRDRPPRLPRPRPRPSVNPRP: the “shrunken log2 fold change” value came to 0.0833.

As to RRIRIRPPRLPRPRPRPTHRPRP, the “shrunken log2 fold change” value is -0.322.

With RRIRSRPPRLPRPRPRPQFYPRP, the “shrunken log2 fold change” value is -0.769.

For the sequence RRIRGRPPRLPRPRPRPNMWPRP, the “shrunken log2 fold change” value came to 0.274.

RRIRSRPPRLPRPRPRPDPTPRP: the “shrunken log2 fold change” value came out at 0.035.
